Patent publication US20180296632A1 (DIACCURATE, published 2018)
[ ]: non-standard residue; d: D form. 2Nal = N[C@@H](Cc1ccc2ccccc2c1)C(=O)O

Biological target: Recombinant PLA2GIB enzyme (sPLA2GIB produced in E. coli) (UniProt P04054 23-148)
Test: cell-based or functional assay

Chain of Recombinant PLA2GIB enzyme (sPLA2GIB produced in E. coli) (P04054 23-148 limits assumed): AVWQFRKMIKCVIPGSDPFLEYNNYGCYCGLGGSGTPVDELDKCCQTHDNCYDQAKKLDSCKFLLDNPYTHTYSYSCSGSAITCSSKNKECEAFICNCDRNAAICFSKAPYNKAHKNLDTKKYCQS

IC50 of inhibition of PLA2GIB activity in the bioassay (inhibition of IL-7-induced nuclear translocation of phospho STAT5 in CD4 T cells, STED microscopy): ~4.9 µM
Binder: cyclo([2Nal]LS[2Nal]R) [Peptide I (cyclic(2-NaphthylAla-Leu-Ser-2-NaphthylAla-Arg))]
